The results in this text go back to publication PMC8072677.

The assay deals with CCR7-EGFP (human CCR7 fused to EGFP) (human) (UniProt P32248).
UniProt P32248, sequence (P32248 25-378): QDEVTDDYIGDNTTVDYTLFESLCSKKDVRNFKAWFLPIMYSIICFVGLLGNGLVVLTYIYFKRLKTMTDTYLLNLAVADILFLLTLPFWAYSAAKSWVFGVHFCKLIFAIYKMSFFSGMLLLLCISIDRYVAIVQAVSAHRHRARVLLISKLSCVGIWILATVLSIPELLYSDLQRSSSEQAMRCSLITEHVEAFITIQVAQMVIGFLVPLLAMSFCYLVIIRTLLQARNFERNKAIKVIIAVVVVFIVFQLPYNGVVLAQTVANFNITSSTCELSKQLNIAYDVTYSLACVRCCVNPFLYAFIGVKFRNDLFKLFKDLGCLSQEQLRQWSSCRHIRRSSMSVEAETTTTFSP

Substance “CCL19 (recombinant untagged, native mature human CCL19) (from UniProt Q99731 22-98) (ligand)” returned a Transwell migration of 300-19 pre-B cells stably expressing CCR7 towards graded concentrations of chemokine, 3 h; concentration of maximal migration of 50 nM.
